This is an account of results in patent US20120149879A1 (published 2012).

For orientation: Kd means a measure of binding affinity in units of concentration. Low readings indicate tighter binding, high ones weaker binding.

For assay [1], the target named is T1, IGF-1R (UniProt P08069 31-932, limits assumed).
T1 construct: Analyte in the Biacore assays; also called IGF-IR; insulin-like growth factor I receptor
Nature of the assay: SPR (Biacore T100), antibody captured by anti-human IgG on C1 chip, IGF-1R injected, 25 C. A general note: Surface plasmon resonance follows binding to a sensor surface in real time, without labels.

Assay [2] concerns the target T2, EGFR-ECD (human, UniProt P00533 25-645).
T2 construct: extracellular domain; Analyte in the Biacore assays; also called human epidermal growth factor receptor; HER-1
Nature of the assay: SPR (Biacore T100), antibody captured by anti-human IgG on C1 chip, EGFR-ECD injected, 25 C. As for the experimental part:
Capturing anti-human IgG antibody was immobilized on the surface of a C1 biosensorchip using amine-coupling chemistry. […] A reference control flow cell was treated in the same way but with vehicle buffers only instead of the capturing antibody. Surfaces were blocked with an injection of 1 M ethanolamine/HCl pH 8.5. The bispecific antibodies were diluted in HBS-P and injected at a flow rate of 5 μl/min. The contact time (association phase) was 1 min for the antibodies at a concentration between 1 and 5 nM. EGFR-ECD was injected at increasing concentrations of 1.2, 3.7, 11.1, 33.3, 100 and 300 nM, IGF-1R at concentrations of 0.37, 1.11, 3.33, 10, 30 and 90 nM. The contact time (association phase) was 3 min, the dissociation time (washing with running buffer) 5 min for both molecules at a flowrate of 30 μl/min. All interactions were performed at 25° C. (standard temperature). The regeneration solutions of 0.85% phosphoric acid and 5 mM sodium hydroxide were injected each for 60 s at 5 μl/min flow to remove any non-covalently bound protein after each binding cycle. Signals were detected at a rate of one signal per second. Samples were injected at increasing concentrations.

The target in assay [3] is T2, EGFR-ECD. Description: SPR (Biacore T100), antibody captured by anti-human IgG on CM5 chip, EGFR-ECD injected, 25 C. As for the experimental part:
A reference control flow cell was treated in the same way but with vehicle buffers only instead of the capturing antibody. Surfaces were blocked with an injection of 1 M ethanolamine/HCl pH 8.5. The bispecific antibodies were diluted in HBS-P and injected at a flow rate of 5 μl/min. […] The contact time (association phase) was 3 min, the dissociation time (washing with running buffer) 5 min for both molecules at a flowrate of 30 μl/min. All interactions were performed at 25° C. (standard temperature). […] Signals were detected at a rate of one signal per second. Samples were injected at increasing concentrations.

B1: scFab-XGFR2_2720 (bispecific antibody)
chain 1: not shown
chain 2: DIQMTQSPSSLSASVGDRVTITCRASQGINNYLNWYQQKPGKAPKRLIYNTNNLQTGVPSRFSGSGSGTEFTLTISSLQPEDFATYYCLQHNSFPTFGQGTKLEIKRTVAAPSVFIFPPSDEQLKSGTASVVCLLNNFYPREAKVQWKVDNALQSGNSQESVTEQDSKDSTYSLSSTLTLSKADYEKHKVYACEVTHQGLSSPVTKSFNRGEC
In the case of B1, the dissociation constant Kd in assay [1] was 11 nM; in assay [2], 0.5 nM.

B2: humanized rat anti-EGFR antibody ICR62 with VH of SEQ ID NO: 8, and VL of SEQ ID NO: 10 (antibody, V domains shown)
VH: QVQLVQSGAEVKKPGSSVKVSCKASGFTFTDYKIHWVRQAPGQGLEWMGYFNPNSGYSTYAQKFQGRVTITADKSTSTAYMELSSLRSEDTAVYYCARLSPGGYYVMDAWGQGTTVTVSS
VL: DIQMTQSPSSLSASVGDRVTITCRASQGINNYLNWYQQKPGKAPKRLIYNTNNLQTGVPSRFSGSGSGTEFTLTISSLQPEDFATYYCLQHNSFPTFGQGTKLEIKR
notes: Parent monospecific 'wildtype' IgG; also called <EGFR>ICR62; <EGFR> ICR62
For B2, the values for the dissociation constant Kd in assay [2] and in assay [3] were 0.5 nM and 3 nM, respectively.
